Assay [1] addresses T1, human MSLN-FL-his protein (human, UniProt Q13421 296-580).
T1 construct: made in HEK293E cells, purified on nickel column; also called hMSLN-FL-his; human MSLN full-length protein; not shown: His tag
The assay can be described thus: competitive ELISA; coated 2ug/ml F3.74.20. Background: In an ELISA, binding on a coated surface is turned into a signal by an enzyme label.
T1 sequence (Q13421 other isoform, or with tags, fused parts or gaps): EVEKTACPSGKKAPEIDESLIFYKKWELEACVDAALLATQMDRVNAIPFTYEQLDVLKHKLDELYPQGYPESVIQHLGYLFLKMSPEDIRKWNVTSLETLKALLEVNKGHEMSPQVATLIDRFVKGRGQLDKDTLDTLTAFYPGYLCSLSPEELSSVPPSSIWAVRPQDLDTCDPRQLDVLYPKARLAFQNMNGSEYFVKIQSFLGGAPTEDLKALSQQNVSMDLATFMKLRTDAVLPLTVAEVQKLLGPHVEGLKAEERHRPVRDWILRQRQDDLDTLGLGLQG

Assay [2] concerns the target T1, human MSLN-FL-his protein. Description: competitive ELISA; coated 2ug/ml F3.23.1.
Description: (§1) In order to identify antigen-binding sites of antibodies, MSLN chimeric antibodies were grouped using competitive ELISA.
(§2) The chimeric antibodies were diluted to 2 μg/mL with PBS and allowed to coat 96-well high-adsorption ELISA plates at 50 μL/well. After the plates were coated at 4° C. overnight, 250 μL of a blocking buffer (PBS containing 2% (w/w) BSA) was added for two hours of blocking at room temperature. 40 μg/mL of the antibodies to be tested were added, and then the human MSLN-FL-His protein with an EC₈₀ concentration corresponding to each of the antibodies to be tested was added for incubation for 2 h. The plates were washed 5 times with PBS, an HRP-labeled anti-His secondary antibody (purchased from Genescript, Cat. No. A00612) was then added for incubation for 1 h, and the plates were washed 5 times again. A TMB substrate was added at 50 μL/well, and after 10 minutes of incubation at room temperature, a stop solution (1.0 M HCl) was added at 50 μL/well. OD₄₅₀ nm values were read using an ELISA plate reader (Insight, purchased from PerkinElmer), and the competition rate between the antibodies was calculated according to the OD₄₅₀ nm values using a formula.
Assay [3] concerns the target T1, human MSLN-FL-his protein. Description: competitive ELISA; coated 2ug/ml Tab108 (R3).
Description: as §1, §2
For assay [4], the target named is T1, human MSLN-FL-his protein. The assay can be described thus: competitive ELISA; coated 2ug/ml F3.45.21.
Description: as §1, §2
Assay [5] addresses T1, human MSLN-FL-his protein. Description: competitive ELISA; coated 2ug/ml F3.51.8.
Description: as §1, §2
Assay [6] has as its target T1, human MSLN-FL-his protein. Description: competitive ELISA; coated 2ug/ml F4-127.10.
Description: as §1, §2
The target in assay [7] is T1, human MSLN-FL-his protein. Description: competitive ELISA; coated 2ug/ml Tab142 (R1).
Description: as §1, §2
The target in assay [8] is T1, human MSLN-FL-his protein. The assay can be described thus: SPR (Biacore), antibody captured on Protein A chip.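 Also: measured at 25 °C, analyte injected 240 s in five twofold dilutions from 200 nM, dissociation up to 600 s, double-referenced, fitted with Langmuir 1:1 model.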
For assay [9], the target named is T1, human MSLN-FL-his protein. Description: competitive ELISA; coated 2ug/ml F3.80.22.
Description: as §1, §2
Assay [10] addresses T2, human MSLN-R1-his protein (human, UniProt Q13421 296-390).
T2 construct: also called hMSLN-R1-his; human MSLN-R1 protein; not shown: His tag
T2 chain: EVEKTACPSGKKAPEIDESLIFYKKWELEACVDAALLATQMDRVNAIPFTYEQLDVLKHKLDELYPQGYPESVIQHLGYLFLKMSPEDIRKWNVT
The assay can be described thus: ELISA, coated antigen; no antibody (blank, column 'none').

In assay [11] the target is T3, human MSLN-FL-his protein (human, UniProt Q13421 296-580).
T3 construct: also called hMSLN-FL-his; human MSLN full-length protein; not shown: His tag
Description: ELISA, coated antigen; antibody 0.1 nM.
Target sequence in this assay (Q13421 other isoform, or with tags, fused parts or gaps): as the sequence (Q13421 other isoform, or with tags, fused parts or gaps) above

Assay [12] addresses T3, human MSLN-FL-his protein. The assay can be described thus: ELISA, coated antigen; antibody 10 nM.
Target sequence in this assay (Q13421 other isoform, or with tags, fused parts or gaps): as the sequence (Q13421 other isoform, or with tags, fused parts or gaps) above
Description: (§3) The plate was sealed with a plastic film and incubated at 4° C. overnight. The next day, the plate was washed twice with PBST, and a blocking buffer [PBS+2% (w/w) BSA] was added for blocking at room temperature for 2 h. The blocking buffer was discarded, and a chimeric antibody or negative control antibody serially diluted from 100 nM was added at 50 μL/well. After incubation at 37° C. for 2 h, the plate was washed 3 times with PBST. […] After incubation at 37° C. for 2 h, the plate was washed 5 times with PBST. A TMB substrate was added at 50 μL/well for incubation at room temperature for 5-10 min, and then a stop solution (1.0 N HCl) was added at 50 μL/well.
The target in assay [13] is T2, human MSLN-R1-his protein. Description: ELISA, coated antigen; antibody 0.01 nM.
Description: as §3
Assay [14] addresses T3, human MSLN-FL-his protein. The assay can be described thus: ELISA, coated antigen; no antibody (blank, column 'none').
Description: as §3
In assay [15] the target is T2, human MSLN-R1-his protein. The assay can be described thus: ELISA, coated antigen; antibody 10 nM.
Description: as §3
Assay [16] has as its target T3, human MSLN-FL-his protein. Description: ELISA, coated antigen; antibody 0.001 nM.
Target sequence in this assay (Q13421 other isoform, or with tags, fused parts or gaps): as the sequence (Q13421 other isoform, or with tags, fused parts or gaps) above
Description: as §3
Assay [17] deals with T2, human MSLN-R1-his protein. Description: ELISA, coated antigen; antibody 0.0001 nM.
Description: as §3
The target in assay [18] is T3, human MSLN-FL-his protein. Description: ELISA, coated antigen; antibody 0.01 nM.
Target sequence in this assay (Q13421 other isoform, or with tags, fused parts or gaps): as the sequence (Q13421 other isoform, or with tags, fused parts or gaps) above
Description: as §3
Assay [19] deals with T3, human MSLN-FL-his protein. The assay can be described thus: ELISA, coated antigen; antibody 0.0001 nM.
Target sequence in this assay (Q13421 other isoform, or with tags, fused parts or gaps): as the sequence (Q13421 other isoform, or with tags, fused parts or gaps) above
Description: as §3
Assay [20] has as its target T3, human MSLN-FL-his protein. The assay can be described thus: ELISA, coated antigen; antibody 1 nM.
Description: as §3
The target in assay [21] is T2, human MSLN-R1-his protein. The assay can be described thus: ELISA, coated antigen; antibody 0.001 nM.
Description: as §3
Assay [22] addresses T2, human MSLN-R1-his protein. Description: ELISA, coated antigen; antibody 0.1 nM.
Description: as §3
Assay [23] deals with T2, human MSLN-R1-his protein. The assay can be described thus: ELISA, coated antigen; antibody 100 nM.
Description: as §3
Assay [24] addresses T2, human MSLN-R1-his protein. The assay can be described thus: ELISA, coated antigen; antibody 1 nM.
Description: as §3
Assay [25] concerns the target T3, human MSLN-FL-his protein. The assay can be described thus: ELISA, coated antigen; antibody 100 nM.
Description: as §3

B1: S009-F3.23.1 (antibody, human IgG1, kappa, V domains shown)
VH: QVQLQQSGADLVRPGASVTLSCKASGYTFTDYEMHWVKQTPVHGLEWIGAIDPETGDTVYNQNFKGKAILTADKSSSTAYMELRSLTSEDSAVYYCTRYGYDWGWGQGTTLTVSS
VL: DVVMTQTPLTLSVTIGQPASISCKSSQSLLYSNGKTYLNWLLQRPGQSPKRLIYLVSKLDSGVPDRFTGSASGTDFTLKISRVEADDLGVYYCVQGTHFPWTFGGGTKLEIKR
notes: human-murine chimeric antibody, human IgG1/kappa constant regions
In general, Kd refers to the equilibrium constant for the complex coming apart. In general, koff refers to the first-order rate constant of dissociation. Low readings indicate a long-lived complex, high ones a short-lived complex. As to B1, the competition rate is 93% in [1]; 95% in assay [2]; 35% in [3]; 89% in [4]; 94% in [5]; 31% in assay [6]. Besides, the competition rate in [7] was -25%; in assay [9], -36%. The Kd in assay [8] is 689 nM. The molecule also gave a koff in assay [8] of 0.000703 s⁻¹.

B2: S009-F1.57.1 human-murine chimeric antibody (antibody, human IgG1, kappa, V domains shown)
VH: EAQLQQSGAVFVKPGASVKLSCTASGFSSKDIFLHWVKQRPEQGLEWIGRIDPASDNTIYDPKFQDRATITSDRSSNTAYLQFSSLTSEDTAVYFCLYFDFWGQGTTLTVSS
VL: DIVMTQATPSISVTPGESVSISCRSSESLLHSNGNTYLYWFLQRPGQSPQLLIYRMSNLASGVPDRFSVSGSGTAFTLRISRVEAEDVGVYYCMQHLEYPLTFGAGTKLELKR
notes: Chimeric IgG1/kappa
Take B2: the OD450 in [10] came to 0.05; in assay [11] it was 0.82; in assay [12] it was 2.42; in assay [13], 0.05; in [14] it was 0.05; in assay [15] it was 0.04. Also, the OD450 came to 0.06 in assay [16]; 0.04 in assay [17]; 0.15 in [18]; 0.05 in assay [19]; 2.03 in assay [20]; 0.04 in assay [21]. Besides, the OD450 was 0.03 in assay [22], 0.07 in assay [23], 0.03 in [24] and 2.51 in assay [25].

B3: S009-F1.62.9 human-murine chimeric antibody (antibody, human IgG1, kappa, V domains shown)
VH: EVQLQQSGADLVKPGASVKLSCTVFGLNFKDTFMHWVRQRPEQGLEWIGRIDPANDNSIYGPKFQDKATITADTSSNTAYLHLSSLTSEDTAVYYCLYFDNWGHGTTLTVSS
VL: DIVMTQAASSEPVTPGESVSISCRSDKSLLHSNGHNYLYWFLQRPGQSPHLLIYRMSNLASGVPDRFSGSGSGTAFTLRISRVEAEDVGVYYCMQHLEYPLTFGAGTKLELKR
notes: Chimeric IgG1/kappa
For the molecule B3, the OD450 in [10] was found to be 0.05; in assay [11], 1.79; in assay [12], 2.59; in assay [13], 0.05; in assay [14], 0.05; in assay [15], 0.04. In addition, the OD450 came out at 0.11 in assay [16]; 0.04 in assay [17]; 0.48 in [18]; 0.06 in assay [19]; 2.35 in [20]; 0.04 in assay [21]. Also, the OD450 in assay [22] is 0.04; in assay [23], 0.06; in [24], 0.04; in assay [25], 2.61.

B4: S009-F1.56.1 human-murine chimeric antibody (antibody, human IgG1, kappa, V domains shown)
VH: EVQLQQSGAEVVKPGASVKLSCTASGFNIRHTYMHWVKQRPEQGLEWIGRIDPANGNTEYDPKFQGKATITADTSSNTAYLQLSSLTSEDTAVYYCARDGWYIDVWGAGTTVTVSS
VL: DIVMSQSPSSLAVSVGEKVTMSCKSSQSLLYSNNQKNYLAWYQQKPGQSPKLLIYWASTRESGVPDRFTGSGSGTDFTLTISSVKAEDLAVYYCQRYYSYPWTFGGGTKLEIKR
notes: Chimeric IgG1/kappa
For B4, the OD450 came to 0.05 in assay [10]; 1.83 in assay [11]; 2.44 in assay [12]; 0.03 in assay [13]; 0.05 in assay [14]; 0.06 in assay [15]. The OD450 in [16] amounted to 0.11; in assay [17] it was 0.04; in assay [18], 0.55; in [19], 0.05; in assay [20], 2.3; in [21], 0.05. The OD450 in [22] came out at 0.04; in assay [23], 0.12; in assay [24], 0.05; in [25], 2.74.

B5: S009-F1.59.1 human-murine chimeric antibody (antibody, human IgG1, kappa, V domains shown)
VH: EVKLEGSGGGLVQPGGSMMLSCVATGFTFSSYWMNWVRQSPDRGLEWVAEIRLKSNGFAAFYAESVKGRFTISRDDSKSSVYLQMNNLRTEDTGIYYCTYFVHWGQGILVTVSE
VL: DIVLTQSPTSLAVSLGQRATISCRTSESVEYFGTILIQWYQQKPGQPPKLLIFGASNVESGVPARFSGSGSGTDFSLNIHPVEEEDIAMYFCQQNRKVPYTFGGGTTLELKR
notes: Chimeric IgG1/kappa
For B5, the OD450 in assay [10] stood at 0.05; in [11], 1.76; in [12] it was 2.38; in assay [13], 0.05; in assay [14], 0.05; in assay [15] it was 0.04. In addition, the OD450 worked out at 0.1 in [16]; 0.03 in assay [17]; 0.47 in assay [18]; 0.06 in [19]; 2.31 in assay [20]; 0.04 in assay [21]. The OD450 in [22] was found to be 0.03; in assay [23], 0.06; in [24] it was 0.03; in assay [25] it was 2.65.

B6: S009-F3.45.21 (antibody, human IgG1, kappa, V domains shown)
VH: DVQLQESGPGLVKPSQSLSLTCSVTGDSITSGYYWNWIRQFPGNKLEWMGFIRFDGTNNYNPSLKNRISITRDTSKNQFFLKLNSVTTEDTATYYCAREGSYAPAWFAYWGQGTLVTVSA
VL: QIVLTQSPAIMSASPGEKVTMTCSASSSLSYMYWYQQKPGSSPRLLIYDTSNLASGVPVRFSGSGSGTSYSLTISRMEAEDAATYYCQQWSSYPPTFGGGTKLEIKR
notes: as for B1
What is called kon is the second-order rate constant of association. Low values mean slow association, high ones fast association. In the case of B6, the competition rate amounted to 96% in assay [1]; 99% in assay [2]; 32% in [3]; 92% in assay [4]; 96% in [5]; 37% in assay [6]. In addition, the competition rate in assay [7] was -38%; in assay [9] it was -26%. In addition, the Kd in [8] is 1.5 nM. Further, the koff in assay [8] was determined as 0.00083 s⁻¹. Moreover, the kon in assay [8] worked out at 552000 M⁻¹ s⁻¹.

B7: S009-F3.51.8 (antibody, human IgG1, kappa, V domains shown)
VH: QVQLQQSGAELVRPGASVTLSCKASGYTFTDYEMHWVKQTPVHGLEWIGGFDPETGGTAHNQKFKGKAILTADKSSSTAYMELRSLTSEDSAVYYCSNYGSIWGDCWGQGTSVTVSS
VL: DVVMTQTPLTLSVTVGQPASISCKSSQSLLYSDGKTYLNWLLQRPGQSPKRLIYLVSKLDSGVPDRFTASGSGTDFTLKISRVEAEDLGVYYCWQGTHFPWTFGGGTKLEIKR
notes: as for B1
With B7, the competition rate was 101% in [1]; 101% in assay [2]; 46% in assay [3]; 98% in assay [4]; 102% in assay [5]; 78% in assay [6]. Besides, the competition rate in [7] was -34%; in [9], -17%. Moreover, the Kd in assay [8] came to 142 nM. The same molecule registered a koff in assay [8] of 0.00035 s⁻¹. The molecule further came in with a kon in assay [8] of 2470 M⁻¹ s⁻¹.

For the origin of these results see patent publication US20250250357A1 (NANJING ZAIMING PHARMACEUTICAL, published 2025).
